According to patent publication US20150233949A1, “DETECTION AND MODULATION OF CYTOCHROME C ACETYLATION” (President and Fellows of Harvard College, priority 2008, published 2015):

System: cytochrome c
Experiment: Tandem mass spectrometry of cytochrome c acetylation in transfected SH-SY5Y cells
Type: cell-based, mouse
Conditions: hSIRT3 cotransfected with cytochrome c in SH-SY5Y cells; FIG. 3
Description: SH-SY5Y cells were cultured in Dulbecco's Modified Eagle's Medium (DMEM) supplemented with 10% Fetal Calf Serum (FCS). SH-SY5Y cells were transfected with Lipofectamine 2000 (Invitrogen, Carlsbad, Calif.). Granule neuron cultures were prepared from cerebella of postnatal day 5 mouse pups. Neurons were placed on polyornithine-coated 96-well plates and grown in Basal Medium Eagle (BME) (Sigma, St. Louis, Mo.) supplemented with 10% calf serum (Hyclone Laboratories, Logan, Utah), 25 mM KCl, 2 mM glutamine, penicillin, and streptomycin. One day after cultures were prepared they were treated with 10 μM of the antimitotic agent cytosine-D-arabinofuranoside (Sigma, St. Louis, Mo.) to prevent the proliferation of non-neuronal cells.
A large-scale Flag-immunoprecipitation followed by elution with 3× Flag peptide was performed on cell extracts from 10×15 cm-plates of SH-SY5Y cells transfected with pcDNA-mouse cytochrome c-Flag+/−pcDNA-hSIRT3-HA. Purified proteins were separated by SDS-PAGE, and the band corresponding to cytochrome c was excised and analyzed by MS/MS.

B1: hSIRT3: human SIRT3 deacetylase expressed from transfected pcDNA-hSIRT3-HA vector (protein)
chain: MAFWGWRAAAALRLWGRVVERVEAGGGVGPFQACGCRLVLGGRDDVSAGLRGSHGARGEPLDPARPLQRPPRPEVPRAFRRQPRAAAPSFFFSSIKGGRRSISFSVGASSVVGSGGSSDKGKLSLQDVAELIRARACQRVVVMVGAGISTPSGIPDFRSPGSGLYSNLQQYDLPYPEAIFELPFFFHNPKPFFTLAKELYPGNYKPNVTHYFLRLLHDKGLLLRLYTQNIDGLERVSGIPASKLVEAHGTFASATCTVCQRPFPGEDIRADVMADRVPRCPVCTGVVKPDIVFFGEPLPQRFLLHVVDFPMADLLLILGTSLEVEPFASLTEAVRSSVPRLLINRDLVGPLAWHPRSRDVAQLGDVVHGVESLVELLGWTEEMRDLVQRETGKLDGPDK
modifications: left off: small tags and cut ends
notes: human SIRT3 deacetylase expressed from transfected pcDNA-hSIRT3-HA vector
In the case of B1, the “acetylation of residues K40 and K74 of cytochrome c” value is reported as “no longer detected”.
